Experiments:
[1] = biological target: MsuD^ΔC–16 (MsuD with the last 16 residues of the C terminus deleted) (Pseudomonas fluorescens)
[2] = biological target: MsuD^ΔC–16 (MsuD with the last 16 residues of the C terminus deleted) (Pseudomonas fluorescens); experiment: SEC; analytical gel filtration, Enrich SEC 650 10 × 300 column, 4 °C, 50 mM sodium phosphate, 150 mM NaCl, pH 7.2, with high-molecular-weight standards
[3] = biological target: alkanesulfonate monooxygenase MsuD from Pseudomonas fluorescens (wildtype) (Pseudomonas fluorescens)
[4] = biological target: alkanesulfonate monooxygenase MsuD from Pseudomonas fluorescens (wildtype) (Pseudomonas fluorescens); experiment: SEC; analytical gel filtration, Enrich SEC 650 10 × 300 column, 4 °C, 50 mM sodium phosphate, 150 mM NaCl, pH 7.2, with high-molecular-weight standards
[5] = biological target: alkanesulfonate monooxygenase MsuD from Pseudomonas fluorescens (wildtype) (Pseudomonas fluorescens); experiment: crystal structure; cocrystal with FMN and MS− (P6_1, four chains per asymmetric unit); unliganded and FMN- or FMN/MS−-soaked crystals (P2_1, two tetramers per asymmetric unit)

| Substance | sulfite formation from MS− in a coupled reaction with MsuE (DTNB assay) (µmol/min/µmol enzyme) [1] | stoichiometry N [2] | sulfite formation from MS− in a coupled reaction with MsuE (DTNB assay), wildtype under the conditions of the MsuD^ΔC–16 test (µmol/min/µmol enzyme) [3] | stoichiometry N [4] | stoichiometry N [5] |
| --- | --- | --- | --- | --- | --- |
| MsuD^ΔC–16 (MsuD with the last 16 residues of the C terminus deleted) (domain or fragment) | 0.45 | 2 |  |  |  |
| alkanesulfonate monooxygenase MsuD from Pseudomonas fluorescens (wildtype) (enzyme) |  |  | 5.7 | 4 | 4 |
